From US20260250410A1 (SICHUAN HUIYU PHARMACEUTICAL, published 2026)

T1: HuCDCP1-A (human, UniProt Q9H5V8 30-430)
T1 construct: range 30-430; expressed in HEK-293T, purified by Fc/his tag; also called human CDCP1-A; membrane-distal region of CDCP1; not shown: Fc or his tag
T1 sequence (looked up): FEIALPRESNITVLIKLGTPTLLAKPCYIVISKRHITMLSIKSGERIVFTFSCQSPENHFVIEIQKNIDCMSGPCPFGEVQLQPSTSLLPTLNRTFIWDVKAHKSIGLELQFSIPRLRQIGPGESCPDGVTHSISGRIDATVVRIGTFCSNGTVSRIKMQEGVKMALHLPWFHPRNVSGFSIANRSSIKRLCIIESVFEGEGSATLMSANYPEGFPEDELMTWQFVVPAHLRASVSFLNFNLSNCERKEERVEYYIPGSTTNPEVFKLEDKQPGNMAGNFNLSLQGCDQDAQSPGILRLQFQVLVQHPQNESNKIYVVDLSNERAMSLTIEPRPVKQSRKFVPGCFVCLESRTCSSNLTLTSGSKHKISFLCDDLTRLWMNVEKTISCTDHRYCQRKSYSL

T2: CynoCDCP1 (Macaca fascicularis, UniProt A0A2K5VLA8 30-667)
T2 construct: extracellular domain; also called Macaca fascicularis CDCP1; monkey CDCP1; not shown: Fc or his tag
T2 sequence: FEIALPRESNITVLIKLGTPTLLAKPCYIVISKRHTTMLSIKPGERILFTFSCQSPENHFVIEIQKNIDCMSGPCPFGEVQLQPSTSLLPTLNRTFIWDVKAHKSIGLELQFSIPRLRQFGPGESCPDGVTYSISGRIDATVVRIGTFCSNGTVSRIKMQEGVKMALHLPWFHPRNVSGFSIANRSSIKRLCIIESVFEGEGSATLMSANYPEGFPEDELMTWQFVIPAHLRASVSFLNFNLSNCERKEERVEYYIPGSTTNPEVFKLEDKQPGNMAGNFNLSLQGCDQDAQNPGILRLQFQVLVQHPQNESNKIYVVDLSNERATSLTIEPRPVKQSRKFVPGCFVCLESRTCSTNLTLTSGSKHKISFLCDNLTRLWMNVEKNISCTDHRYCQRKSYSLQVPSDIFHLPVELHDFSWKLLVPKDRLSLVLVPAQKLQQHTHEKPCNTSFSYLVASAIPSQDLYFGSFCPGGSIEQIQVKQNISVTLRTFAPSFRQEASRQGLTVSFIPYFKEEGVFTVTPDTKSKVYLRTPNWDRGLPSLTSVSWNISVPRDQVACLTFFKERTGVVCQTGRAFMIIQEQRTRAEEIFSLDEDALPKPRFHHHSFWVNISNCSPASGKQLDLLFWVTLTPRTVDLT

T3: MsCDCP1 (mouse, UniProt Q5U462 30-666)
T3 construct: extracellular domain; also called mouse CDCP1; not shown: Fc or his tag
T3 sequence (looked up): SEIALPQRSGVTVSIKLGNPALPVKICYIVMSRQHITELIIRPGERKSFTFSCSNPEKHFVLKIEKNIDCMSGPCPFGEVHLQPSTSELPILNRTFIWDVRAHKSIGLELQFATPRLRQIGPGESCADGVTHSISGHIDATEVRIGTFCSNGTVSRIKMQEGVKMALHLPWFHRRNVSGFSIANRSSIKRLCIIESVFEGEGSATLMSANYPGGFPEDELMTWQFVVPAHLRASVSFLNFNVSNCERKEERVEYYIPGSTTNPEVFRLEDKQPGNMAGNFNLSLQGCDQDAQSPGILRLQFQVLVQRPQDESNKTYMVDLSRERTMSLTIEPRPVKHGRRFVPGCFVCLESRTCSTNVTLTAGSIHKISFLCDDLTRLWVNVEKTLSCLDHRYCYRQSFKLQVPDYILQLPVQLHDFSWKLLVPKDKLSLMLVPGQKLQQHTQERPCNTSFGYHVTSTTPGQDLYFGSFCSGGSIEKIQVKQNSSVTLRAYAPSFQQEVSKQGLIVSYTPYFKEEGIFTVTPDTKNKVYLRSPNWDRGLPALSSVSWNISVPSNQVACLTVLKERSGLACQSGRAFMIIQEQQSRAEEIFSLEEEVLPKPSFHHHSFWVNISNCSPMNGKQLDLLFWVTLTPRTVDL

T4: RatCDCP1 (rat, UniProt D3ZVA1 29-666)
T4 construct: extracellular domain; not shown: Fc or his tag
T4 sequence: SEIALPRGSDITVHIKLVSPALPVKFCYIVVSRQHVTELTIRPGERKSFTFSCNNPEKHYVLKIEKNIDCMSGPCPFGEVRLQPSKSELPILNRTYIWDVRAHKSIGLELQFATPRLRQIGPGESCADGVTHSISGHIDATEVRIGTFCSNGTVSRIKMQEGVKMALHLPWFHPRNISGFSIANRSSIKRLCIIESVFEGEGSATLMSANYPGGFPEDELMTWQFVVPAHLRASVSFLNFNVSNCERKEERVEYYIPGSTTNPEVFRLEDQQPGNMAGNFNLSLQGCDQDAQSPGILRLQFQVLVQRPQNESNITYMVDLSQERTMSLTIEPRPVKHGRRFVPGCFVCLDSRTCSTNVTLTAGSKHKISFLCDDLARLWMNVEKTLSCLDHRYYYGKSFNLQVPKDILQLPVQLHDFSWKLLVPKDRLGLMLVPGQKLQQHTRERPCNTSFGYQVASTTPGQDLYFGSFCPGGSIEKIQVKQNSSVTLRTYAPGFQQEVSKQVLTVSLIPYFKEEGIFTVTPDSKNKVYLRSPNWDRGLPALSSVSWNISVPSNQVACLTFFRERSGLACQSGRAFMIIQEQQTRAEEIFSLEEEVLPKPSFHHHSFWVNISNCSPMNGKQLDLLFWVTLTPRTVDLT

B1: G10F6 (antibody, V domains shown)
VH: EVKLVESGPGILQPSQTLSLTCSFSGFSLSTSGMGVSWVRQPSGKGLEWLAHIYWDDDKRYNPSLKGRLTISKDTPRNQVFLEITSVDTTDTATYYCARVPGNWDEDAMDYWGQGTTVTVSS
VL: DIQMTQSPLSLPVSLGDQASISCRSSQNIVHTNGNTYLEWYLQKVGQSPKLLIYKVSNRFSGVPDRFSGSGSGTDFTLKISRVEAEDLGVYYCFQGSHVPYTFGGGTKLEIK
notes: murine hybridoma mAb
B2: 14A10C5 (antibody, V domains shown)
VH: EVKLVESGPGILQPSQTLSLTCSFSGFSLSTSGMGVSWIRQPSGKGLEWLAHIYWDDEKRYNPSLKSRLTISKDTSSNQVFLKITSVDTADTATYYCAREGSANWEAMDYWGQGTTVTVSS
VL: DIVMTQAALSLPVSLGDQASISCRSSQNIVYTNGITYLEWYLQKPGQSPKLLIYKVSNRFSGVPDRFSGSGSATDFTLKISRVEAEDLGVYYCFQSSHVPWTFGGGTKLEIK
notes: murine hybridoma mAb; also called 14A10CS
B3: 5B8 (antibody, V domains shown)
VH: EVQLKESGGGLVQPGGSLRISCATSGLTFTHYHMSWVRQPPGKAPEWLAIIRNKAYGYTTDYSASVRGRFTISRDDSQSILYLQMNTLRAEDSATYYCVREGGYGYDGTFAYWGQGTTVTVSS
VL: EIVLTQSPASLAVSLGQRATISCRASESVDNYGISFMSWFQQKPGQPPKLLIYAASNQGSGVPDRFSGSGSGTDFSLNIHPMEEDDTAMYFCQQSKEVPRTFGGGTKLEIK
notes: murine hybridoma mAb
B4: 8C9 (antibody, V domains shown)
VH: EVQLKESGGGLVQPGGSLRISCATSGLTFTHYHMSWVRQPPGKAPEWLAIIRNKAYGYTTDYSASVRGRFTISRDDSQSILYLQMNTLRPEDSATYYCVREGGYGYDGTFAYWGQGTTVTVSS
VL: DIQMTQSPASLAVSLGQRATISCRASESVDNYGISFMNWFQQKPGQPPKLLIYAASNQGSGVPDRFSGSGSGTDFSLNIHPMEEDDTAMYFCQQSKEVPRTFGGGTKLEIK
notes: murine hybridoma mAb
B5: 12E6 (antibody, V domains shown)
VH: EVQLKESGPGILQPSQTLSLTCSFSGFSLSTSGMGVGWIRQPSGKGLEWLAHIWWDDVKLYNPALKSRLTISKETSNNQVFLKIASVDAADTATYYCARIDHGYGSNYWDFDVWGAGTTVTVSS
VL: DIVMTQAAPSVPVTPGGSVSISCRSTKSLLHSDGKTYLYWFLQRPGQSPQLLIYRMSNLASGVPDRFSGSGSGTAFTLRISRVEAEDVGVYYCMQHLEYPFTFGSGTKLEIK
notes: murine hybridoma mAb
B6: 3F1A11 (antibody, V domains shown)
VH: EVKLVESGPGLVKPSQSLSLTCTVTGYSITSDYAWNWIRQFPGNKLEWMGYISYNTYTSYNPSLKSRISVTRDTSKNQFFLQLKSVTIEDTATYFCAGGDYYGTGAVDYWGQGTTVTVSS
VL: EIVLTQSPLSLPVSLGDQASISCRSRQTLVHTNGNTYLDWYLQKPGQSPKLLIYKVSIRFSGVPDRFSGSRSGTDFTLKISRVEAEDLGIYYCFQGSHVPWTFGGGTKLEIK
notes: murine hybridoma mAb
B7: 3C11 (antibody, V domains shown)
VH: EVQLQQSGTVLARPGASVKMSCKASGYNFISYWLHWIKQRPGQGLEWIGGIYPGNTDTTYNQKFKGKAKVTAVTSATTAYMELSSLTNEDSAVYYCIRYDYDRGMDYWGQGTTVTVSS
VL: DIQMTQSPSSFSVSLGDRVTITCRASEDIYYRLAWYQQKPGNAPRLLISGATALETGVPSRFSGSGSGKDYTLSITSLQTEDVATYYCQHYWNIPWTFGGGTKLEIK
notes: murine hybridoma mAb
B8: 3B12H5 (antibody, V domains shown)
VH: EVQLQQSGTVLARPGASVKMSCKASGYSFTIYWVHWVKQRPGQGLEWIGAVYPGNDDTSYNQNFKGKAKLTAVTSATTAYMELSSLTIDDSAVYYCTRHTYDEVFDYWGQGTTVTVSS
VL: DIVMTQSPSSLSVSLGDRVTITCKASEDIYYRLAWYQQKPGNAPRLLISGGTNLEAGIPSRFSGSGSGKDYTLSITSLQTEDVAIYYCQHYWNTPWTFGGGTKLEIK
notes: murine hybridoma mAb; also called 3B12HS
B9: 8E5 (antibody, V domains shown)
VH: EVQLKESGPELKKPGETVKISCKASGYTLTDFSMHWLKQAPGKGLKWMGWINTETGAPTYADDFKGRFALSLDTSANTAYLQINNLKNEDTATYFCSRGRDYDPHFDYWGQGTTVTVSS
VL: EIVLTQSPATLSVTPGDRVSLSCRASQSISDFLHWYQQRSHESPRLLIKYASQSISGIPSRFGGSGSGSDFTLNINTVEPEDVGMYYCQSAHSFPYTFGGGTKLEIK
notes: murine hybridoma mAb; also called 8ES
B10: 6A7 (antibody, V domains shown)
VH: EVQLKESGAELVRPGASVKVSCKASGYSFTSYWMNWVKQRPGQGLEWIGMIHPSDSETKLNQKFRDRASLTVDKSSSTAYMQLSSPTSEDSAVYYCTINYESFYYAMDYWGQGTTVTVSS
VL: DIVMTQSPASLAVSLGQRATISCRASKSVSTSGYSYMHWYQQKPGQPPKLLLYLASNLESGVPARFSGSGSGADFTLNIHPVEEEDAATYYCLHSRELPYTFGGGTKLEIK
notes: murine hybridoma mAb

Legend:
Assay in all cases: SPR (Caterra or Biacore), antigen immobilized
HuCDCP1-A = molecular target: T1, HuCDCP1-A
CynoCDCP1 = molecular target: T2, CynoCDCP1
MsCDCP1 = molecular target: T3, MsCDCP1
RatCDCP1 = molecular target: T4, RatCDCP1

| Binder | binding result (HuCDCP1-A) | EC50 (CynoCDCP1) | binding result (MsCDCP1) | binding result (RatCDCP1) | EC50 (RatCDCP1) | EC50 (HuCDCP1-A) | EC50 (MsCDCP1) |
| --- | --- | --- | --- | --- | --- | --- | --- |
| B1 | no binding (tested: 150 nM highest concentration) | 4.47 nM | no binding (tested: 150 nM highest concentration) | no binding (tested: 150 nM highest concentration) | – | – | – |
| B2 | no binding (tested: 150 nM highest concentration) | 98.3 nM | no binding (tested: 150 nM highest concentration) | no binding (tested: 150 nM highest concentration) | – | – | – |
| B3 | no binding (tested: 150 nM highest concentration) | 0.136 nM | no binding (tested: 150 nM highest concentration) | – | 18 nM | – | – |
| B4 | no binding (tested: 150 nM highest concentration) | 0.564 nM | no binding (tested: 150 nM highest concentration) | – | 30.5 nM | – | – |
| B5 | – | 1.45 nM | – | no binding (tested: 150 nM highest concentration) | – | 1.67 nM | 4010 nM |
| B6 | – | 115 nM | no binding (tested: 150 nM highest concentration) | – | 17 nM | 127 nM | – |
| B7 | no binding (tested: 150 nM highest concentration) | 23.6 nM | no binding (tested: 150 nM highest concentration) | no binding (tested: 150 nM highest concentration) | – | – | – |
| B8 | – | 4.5 nM | no binding (tested: 150 nM highest concentration) | no binding (tested: 150 nM highest concentration) | – | 52.3 nM | – |
| B9 | – | 0.0516 nM | no binding (tested: 150 nM highest concentration) | – | 50.5 nM | 79.3 nM | – |
| B10 | no binding (tested: 150 nM highest concentration) | 9.96 nM | – | – | 91.4 nM | – | 27.5 nM |
